{
  "source": "patent US20210292396A1",
  "binders": {"B1": {"name": "ePGT121.15 (ePGT121.15.H6 VH and ePGT121.15.L1 VL) (antibody, V domains shown)", "VH": "QMQLQESGPGLVKPGETLSLTCSVSGASISSSYWSWLRETPGKGLEWIGYTHHSGDTNYAPSLKSRVHLGLHPSKNQVSLSLTSVTAADTAVYYCARTLHGRRIYGVVAFNEFFTYFYWEVWGKGTQVTVSS", "VL": "SDISVAPGETVRISCGGESIGSRAVQWYQHRAGQAPKLIIYNNQDRPPGIPERFSGSPDIDFGTTATLTITNVEAGDEATYYCHIWDSRRPTNWVFGGGTTLTVL"}},
  "test_in_all_cases": "cell-based or functional assay",
  "key": {"[1]": {"molecular_target": "Env of HIV isolate 191821.E6.1 (clade D) (HIV)"}, "[2]": {"molecular_target": "Env of HIV isolate 231965.c01 (clade D) (HIV)"}, "[3]": {"molecular_target": "Env of HIV isolate 246-F3.C10.2 (clade AC) (HIV)"}, "[4]": {"molecular_target": "Env of HIV isolate 26191-2.48 (clade C) (HIV)"}, "[5]": {"molecular_target": "Env of HIV isolate 3168.v4.c10 (clade C) (HIV)"}, "[6]": {"molecular_target": "Env of HIV isolate 3415.v1.c1 (clade A) (HIV)"}, "[7]": {"molecular_target": "Env of HIV isolate 3988.25 (clade B) (HIV)"}, "[8]": {"molecular_target": "Env of HIV isolate 426c (clade C) (HIV)"}, "[9]": {"molecular_target": "Env of HIV isolate 6540.v4.c1 (clade AC) (HIV)"}, "[10]": {"molecular_target": "Env of HIV isolate 6545.v4.c1 (clade AC) (HIV)"}, "[11]": {"molecular_target": "Env of HIV isolate 6644.v2.c33 (clade C) (HIV)"}, "[12]": {"molecular_target": "Env of HIV isolate BB539.2B13 (clade A) (HIV)"}, "[13]": {"molecular_target": "Env of HIV isolate BL01.DG (clade B) (HIV)"}, "[14]": {"molecular_target": "Env of HIV isolate C1080.c3 (clade AE) (HIV)"}, "[15]": {"molecular_target": "Env of HIV isolate C4118.09 (clade AE) (HIV)"}, "[16]": {"molecular_target": "Env of HIV isolate CAP210.E8 (clade C) (HIV)"}, "[17]": {"molecular_target": "Env of HIV isolate CAP244.D3 (clade C) (HIV)"}, "[18]": {"molecular_target": "Env of HIV isolate CH117.4 (clade BC) (HIV)"}, "[19]": {"molecular_target": "Env of HIV isolate CNE10 (clade B) (HIV)"}, "[20]": {"molecular_target": "Env of HIV isolate CNE21 (clade BC) (HIV)"}, "[21]": {"molecular_target": "Env of HIV isolate CNE5 (clade AE) (HIV)"}, "[22]": {"molecular_target": "Env of HIV isolate CNE8 (clade AE) (HIV)"}, "[23]": {"molecular_target": "Env of HIV isolate DU123.06 (clade C) (HIV)"}, "[24]": {"molecular_target": "Env of HIV isolate HO86.8 (clade B) (HIV)"}, "[25]": {"molecular_target": "Env of HIV isolate JRCSF.JB (clade B) (HIV)"}, "[26]": {"molecular_target": "Env of HIV isolate JRFL.JB (clade B) (HIV)"}, "[27]": {"molecular_target": "Env of HIV isolate KER2018.11 (clade A) (HIV)"}, "[28]": {"molecular_target": "Env of HIV isolate MB201.A1 (clade A) (HIV)"}, "[29]": {"molecular_target": "Env of HIV isolate MI369.A5 (clade A) (HIV)"}, "[30]": {"molecular_target": "Env of HIV isolate Q168.a2 (clade AD) (HIV)"}, "[31]": {"molecular_target": "Env of HIV isolate Q769.d22 (clade A) (HIV)"}, "[32]": {"molecular_target": "Env of HIV isolate T257-31 (clade AG) (HIV)"}, "[33]": {"molecular_target": "Env of HIV isolate T266-60 (clade AG) (HIV)"}, "[34]": {"molecular_target": "Env of HIV isolate X2088.c9 (clade G) (HIV)"}, "[35]": {"molecular_target": "Env of HIV isolate YU2.DG (clade B) (HIV)"}, "[36]": {"molecular_target": "Env of HIV isolate ZM249.1 (clade C) (HIV)"}, "[37]": {"molecular_target": "HIV Env of isolate 25925-2.22 (HIV)"}, "[38]": {"molecular_target": "HIV Env of isolate 3326.v4.c3 (HIV)"}, "[39]": {"molecular_target": "HIV Env of isolate 3337.v2.c6 (HIV)"}, "[40]": {"molecular_target": "HIV Env of isolate 57128.vrc15 (HIV)"}, "[41]": {"molecular_target": "HIV Env of isolate 6405.v4.c34 (HIV)"}, "[42]": {"molecular_target": "HIV Env of isolate A03349M1.vrc4a (HIV)"}, "[43]": {"molecular_target": "HIV Env of isolate A07412M1.vrc12 (HIV)"}, "[44]": {"molecular_target": "HIV Env of isolate CAP256.206.C9 (HIV)"}, "[45]": {"molecular_target": "HIV Env of isolate CAP45.G3 (HIV)"}, "[46]": {"molecular_target": "HIV Env of isolate CH070.1 (HIV)"}, "[47]": {"molecular_target": "HIV Env of isolate CH119.10 (HIV)"}, "[48]": {"molecular_target": "HIV Env of isolate CNE15 (HIV)"}, "[49]": {"molecular_target": "HIV Env of isolate DU123.06 (HIV)"}, "[50]": {"molecular_target": "HIV Env of isolate ZM109.4 (HIV)"}},
  "data": [
    {"binder": "B1", "values": [
      {"measurement": "IC50, pseudovirus neutralization", "setting": "[1]", "value": 0.249, "unit": "µg/mL"},
      {"measurement": "IC50, pseudovirus neutralization", "setting": "[2]", "value": 12.5, "unit": "µg/mL"},
      {"measurement": "IC50, pseudovirus neutralization", "setting": "[3]", "value": 11.6, "unit": "µg/mL"},
      {"measurement": "IC50, pseudovirus neutralization", "setting": "[4]", "value": 0.005, "unit": "µg/mL"},
      {"measurement": "IC50, pseudovirus neutralization", "setting": "[5]", "value": 0.026, "unit": "µg/mL"},
      {"measurement": "IC50, pseudovirus neutralization", "setting": "[6]", "value": 0.017, "unit": "µg/mL"},
      {"measurement": "IC50, pseudovirus neutralization", "setting": "[7]", "value": 0.004, "unit": "µg/mL"},
      {"measurement": "IC50, pseudovirus neutralization", "setting": "[8]", "value": 0.385, "unit": "µg/mL"},
      {"measurement": "IC50, pseudovirus neutralization", "setting": "[9]", "value": "> 50", "unit": "µg/mL"},
      {"measurement": "IC50, pseudovirus neutralization", "setting": "[10]", "value": "> 50", "unit": "µg/mL"},
      {"measurement": "IC50, pseudovirus neutralization", "setting": "[11]", "value": 0.003, "unit": "µg/mL"},
      {"measurement": "IC50, pseudovirus neutralization", "setting": "[12]", "value": "> 50", "unit": "µg/mL"},
      {"measurement": "IC50, pseudovirus neutralization", "setting": "[13]", "value": 13.1, "unit": "µg/mL"},
      {"measurement": "IC50, pseudovirus neutralization", "setting": "[14]", "value": "> 50", "unit": "µg/mL"},
      {"measurement": "IC50, pseudovirus neutralization", "setting": "[15]", "value": "> 50", "unit": "µg/mL"},
      {"measurement": "IC50, pseudovirus neutralization", "setting": "[16]", "value": 0.052, "unit": "µg/mL"},
      {"measurement": "IC50, pseudovirus neutralization", "setting": "[17]", "value": "> 50", "unit": "µg/mL"},
      {"measurement": "IC50, pseudovirus neutralization", "setting": "[18]", "value": "> 50", "unit": "µg/mL"},
      {"measurement": "IC50, pseudovirus neutralization", "setting": "[19]", "value": 0.004, "unit": "µg/mL"},
      {"measurement": "IC50, pseudovirus neutralization", "setting": "[20]", "value": 0.002, "unit": "µg/mL"},
      {"measurement": "IC50, pseudovirus neutralization", "setting": "[21]", "value": "> 50", "unit": "µg/mL"},
      {"measurement": "IC50, pseudovirus neutralization", "setting": "[22]", "value": "> 50", "unit": "µg/mL"},
      {"measurement": "IC50, pseudovirus neutralization", "setting": "[23]", "value": 0.003, "unit": "µg/mL"},
      {"measurement": "IC50, pseudovirus neutralization", "setting": "[24]", "value": "> 50", "unit": "µg/mL"},
      {"measurement": "IC50, pseudovirus neutralization", "setting": "[25]", "value": 0.008, "unit": "µg/mL"},
      {"measurement": "IC50, pseudovirus neutralization", "setting": "[26]", "value": 0.014, "unit": "µg/mL"},
      {"measurement": "IC50, pseudovirus neutralization", "setting": "[27]", "value": "> 50", "unit": "µg/mL"},
      {"measurement": "IC50, pseudovirus neutralization", "setting": "[28]", "value": 0.004, "unit": "µg/mL"},
      {"measurement": "IC50, pseudovirus neutralization", "setting": "[29]", "value": 0.004, "unit": "µg/mL"},
      {"measurement": "IC50, pseudovirus neutralization", "setting": "[30]", "value": 5.07, "unit": "µg/mL"},
      {"measurement": "IC50, pseudovirus neutralization", "setting": "[31]", "value": "> 50", "unit": "µg/mL"},
      {"measurement": "IC50, pseudovirus neutralization", "setting": "[32]", "value": "> 50", "unit": "µg/mL"},
      {"measurement": "IC50, pseudovirus neutralization", "setting": "[33]", "value": 0.006, "unit": "µg/mL"},
      {"measurement": "IC50, pseudovirus neutralization", "setting": "[34]", "value": 0.003, "unit": "µg/mL"},
      {"measurement": "IC50, pseudovirus neutralization", "setting": "[35]", "value": 0.005, "unit": "µg/mL"},
      {"measurement": "IC50, pseudovirus neutralization", "setting": "[36]", "value": 0.249, "unit": "µg/mL"},
      {"measurement": "IC80, pseudovirus neutralization", "setting": "[37]", "value": 0.013, "unit": "µg/mL"},
      {"measurement": "IC80, pseudovirus neutralization", "setting": "[38]", "value": 5.05, "unit": "µg/mL"},
      {"measurement": "IC80, pseudovirus neutralization", "setting": "[39]", "value": 2.63, "unit": "µg/mL"},
      {"measurement": "IC80, pseudovirus neutralization", "setting": "[40]", "value": 0.026, "unit": "µg/mL"},
      {"measurement": "IC80, pseudovirus neutralization", "setting": "[41]", "value": 0.009, "unit": "µg/mL"},
      {"measurement": "IC80, pseudovirus neutralization", "setting": "[42]", "value": 0.019, "unit": "µg/mL"},
      {"measurement": "IC80, pseudovirus neutralization", "setting": "[43]", "value": 0.012, "unit": "µg/mL"},
      {"measurement": "IC80, pseudovirus neutralization", "setting": "[44]", "value": 0.006, "unit": "µg/mL"},
      {"measurement": "IC80, pseudovirus neutralization", "setting": "[45]", "value": 24.1, "unit": "µg/mL"},
      {"measurement": "IC80, pseudovirus neutralization", "setting": "[46]", "value": 0.004, "unit": "µg/mL"},
      {"measurement": "IC80, pseudovirus neutralization", "setting": "[47]", "value": 0.016, "unit": "µg/mL"},
      {"measurement": "IC80, pseudovirus neutralization", "setting": "[48]", "value": "> 50", "unit": "µg/mL"},
      {"measurement": "IC80, pseudovirus neutralization", "setting": "[49]", "value": 0.008, "unit": "µg/mL"},
      {"measurement": "IC80, pseudovirus neutralization", "setting": "[50]", "value": "> 50", "unit": "µg/mL"}
    ]}
  ]
}
